Results as given in PMC8412337, “Alpha-single chains of collagen type VI inhibit the fibrogenic effects of triple helical collagen VI in hepatic stellate cells” (PLoS ONE, 2021).

Columns and labels:
CFSC = assay: Fibrosis-associated gene expression, quantitative real-time PCR; type: cell-based, rat; settings: serum-starved CFSC; 30 mg/l CVI plus 133 mg/l monomeric alpha chain; 24 h; n = 4
Procedure: 30 mg/l CVI, 133 mg/l of the monomeric alpha chains of CVI and/or TGF-β (2 ng/ml) were added after 24 h. […] Reverse transcribed complementary DNA templates were amplified by quantitative real-time polymerase chain reaction (PCR; Roche Diagnostics, Mannheim, Germany) using fluorogenic probes labeled with 6-carboxy-fluorescein and 6-carboxy-tetramethylrhodamin (Sigma- Genosys, Steinheim, Germany) and primer pairs (Invitrogen, Karlsruhe, Germany) specific for fibrosis-associated genes (for sequences see S2 Table). Gene expressions were normalized to glyceraldehyde phosphate dehydrogenase (GAPDH).

[1] = Live/Dead Viability/Cytotoxicity Kit (Calcein AM staining); type: cell-based; settings: 24 h with individual chains; S4 Fig; three independent experiments
Procedure: Supplementary file pone.0254557.s004.pdf: S4 Fig Single CVI chains are not toxic To exclude that the effects of the alpha chains on proliferation or gene expression are due to cytotoxic effects, cells were treated 24 h with individual chains and cell viability was determined using the two-colour fluorescence Live/Dead™ Viability/Cytotoxicity Kit (Invitrogen™). Methanol (10% in medium) was used a positive control to induce cell toxicity. Medium was used as a non-toxic negative control. Since acetic acid (HAc) is used as solvent of the chains, cells treated with 0.15 M HAc were included as an additional control group. Shown are Mean ± SD of three independent experiments. Statistics were calculated by one-way ANOVA analysis and Tukey’s multiple comparisons test. Differences p<0.05 were considered significant. (PDF) Click here for additional data file.

[2] = tested on: 10% FBS-induced proliferation of HSC; assay: Inhibition of 10% FBS-induced proliferation by alpha single chains, [3H]-thymidine incorporation; type: cell-based, rat; settings: cells grown in 10% FBS, Fig 4A
Procedure: (§1) 5x10^3CFSC in 100 μl 10% FBS were seeded into a 96-well flat-bottom tissue culture plate (Nunc, Roskilde, Denmark). After 24 hours, medium was completely removed, and cells were rinsed with 200 μl phosphate-buffered saline and 100 μl standard medium containing only 0.25% FBS were added. Cells were cultured for additional 24 h prior to treatment. Synchronized microcultures in 96-well plates were treated for 2 hours in reduction medium. When appropriate, the reduction medium was supplemented with 40 mg/l of α1(VI), α2(VI) or α3(VI). Then, 30 mg/l CVI or CI as control were added and cells were incubated for 24 h after which [^3H]-thymidine was added for additional 24 h. To assess effects of α3(VI)-derived 30-mer peptides on CVI-induced proliferation of CFSC, the reduction medium was supplemented with a 100-fold molar excess of the respective 30-mer peptides compared to CVI. [^3H]-thymidine incorporation was measured as described before. Cells treated with 150 mmol/l HAc or grown in 10% FBS served as negative and positive controls, respectively. During the last 4 hours of treatment, all cultures received 18.5 kBq [^3H]-thymidine (Amersham, Freiburg, Germany). Cells were fixed with 10% trichloroacetic acid and lysed by 200 mmol/l NaOH. After neutralization with 800 mmol/l HCl, lysates were collected to a glassfibre mat and the de-novo DNA synthesis was assessed by liquid scintillation (LKB Wallac, Bromma, Sweden) and the radioactive decay was counted (for) a minute (cpm).

[3] = tested on: CVI-induced proliferation of HSC; assay: Inhibition of CVI-induced proliferation by alpha single chains, [3H]-thymidine incorporation; type: cell-based, rat; settings: 40 mg/l single chain, then 30 mg/l CVI; 24 h; primary rHSCs, n = three; Fig 4A legend: CFSC, n = 4
Procedure: as §1

rat HSCs = settings: blocking integrins in rat HSCs; cited from earlier work
Source text: While the mechanisms underlying this anti-apoptotic property of CVI remain to be fully established, our studies point to a potent repression of BAX by soluble CVI. […] This growth factor withdrawal-induced p53 and Bax upregulation can be mitigated by ECM components through integrin-mediated adhesion and spreading as shown for rat HSCs.

Molecule: α3(VI): monomeric alpha 3 single chain of collagen VI isolated from human placentas
- effect on CVI-induced expression of αSMA, CI and TGF-β (CFSC): largely blocked
- cytotoxic effects (Calcein AM staining, cell viability) [1]: not secondary to cytotoxic effects
- effect on 10% FBS-induced proliferation [2]: did not block any FBS-induced proliferation
- inhibition of DNA synthesis in the presence of CVI [3]: 70%

Molecule: Gly-Arg-Gly-Asp-Ser [GRGDS]
- increase in the Bax/Bcl-2 ratio (rat HSCs): 3 fold

B1: α2(VI): monomeric alpha 2 single chain of collagen VI isolated from human placentas (protein, UniProt P12110 21-1019, looked up)
Collagen alpha-2(VI) chain: QQQEVISPDTTERNNNCPEKTDCPIHVYFVLDTSESVTMQSPTDILLFHMKQFVPQFISQLQNEFYLDQVALSWRYGGLHFSDQVEVFSPPGSDRASFIKNLQGISSFRRGTFTDCALANMTEQIRQDRSKGTVHFAVVITDGHVTGSPCGGIKLQAERAREEGIRLFAVAPNQNLKEQGLRDIASTPHELYRNDYATMLPDSTEIDQDTINRIIKVMKHEAYGECYKVSCLEIPGPSGPKGYRGQKGAKGNMGEPGEPGQKGRQGDPGIEGPIGFPGPKGVPGFKGEKGEFGADGRKGAPGLAGKNGTDGQKGKLGRIGPPGCKGDPGNRGPDGYPGEAGSPGERGDQGGKGDPGRPGRRGPPGEIGAKGSKGYQGNSGAPGSPGVKGAKGGPGPRGPKGEPGRRGDPGTKGSPGSDGPKGEKGDPGPEGPRGLAGEVGNKGAKGDRGLPGPRGPQGALGEPGKQGSRGDPGDAGPRGDSGQPGPKGDPGRPGFSYPGPRGAPGEKGEPGPRGPEGGRGDFGLKGEPGRKGEKGEPADPGPPGEPGPRGPRGVPGPEGEPGPPGDPGLTECDVMTYVRETCGCCDCEKRCGALDVVFVIDSSESIGYTNFTLEKNFVINVVNRLGAIAKDPKSETGTRVGVVQYSHEGTFEAIQLDDERIDSLSSFKEAVKNLEWIAGGTWTPSALKFAYDRLIKESRRQKTRVFAVVITDGRHDPRDDDLNLRALCDRDVTVTAIGIGDMFHEKHESENLYSIACDKPQQVRNMTLFSDLVAEKFIDDMEDVLCPDPQIVCPDLPCQTELSVAQCTQRPVDIVFLLDGSERLGEQNFHKARRFVEQVARRLTLARRDDDPLNARVALLQFGGPGEQQVAFPLSHNLTAIHEALETTQYLNSFSHVGAGVVHAINAIVRSPRGGARRHAELSFVFLTDGVTGNDSLHESAHSMRKQNVVPTVLALGSDVDMDVLTTLSLGDRAAVFHEKDYDSLAQPGFFDRFIRWIC
- effect on CVI-induced expression of αSMA, CI and TGF-β (CFSC): largely blocked
- cytotoxic effects (Calcein AM staining, cell viability) [1]: not secondary to cytotoxic effects
- effect on 10% FBS-induced proliferation [2]: also inhibited 10% FBS-induced proliferation
- inhibition of DNA synthesis in the presence of CVI [3]: 60%
